Source: patent publication US20090208447A1

B1: soluble high affinity c50 ILT-like polypeptide monomer, Q8NHL6 25-221 (receptor)
chain: MHLPKPTLWAEPGSVITMDQPVTLRCQGGQETQEYRLYREKKTAPWITRIPQELVKKGQFPIPSITWEHAGRYRCYYGSDTSQWSASSDPLELVVTGVYIKPTLSAQPSPVVNSGGNVTLQCDSQVAFDGFILCKEGEDEHPQCLNSQPHARGSSRAIFSVGPVSPSRRWWYRCYAYDSNSPYEWSLPSDLLELDVDG
B2: soluble high affinity c50 ILT-like polypeptide dimer, Q8NHL6 25-217 (receptor)
chain: MHLPKPTLWAEPGSVITMDQPVTLRCQGGQETQEYRLYREKKTAPWITRIPQELVKKGQFPIPSITWEHAGRYRCYYGSDTSQWSASSDPLELVVTGVYIKPTLSAQPSPVVNSGGNVTLQCDSQVAFDGFILCKEGEDEHPQCLNSQPHARGSSRAIFSVGPVSPSRRWWYRCYAYDSNSPYEWSLPSDLLELDVDGC
modifications: here or on the partner: additional C-terminal cysteine linked through maleimide to MAL-PEG-MAL, MW 3.4 KD
B3: soluble high affinity c50 ILT-like polypeptide tetramer, Q8NHL6 25-217 (receptor)
chain: B2 chain
modifications: here or on the partner: additional C-terminal cysteine linked through maleimide to 4arm MAL-PEG, MW 20 KD

molecular target: Class I MHC; assay: cell-based or functional assay

Row | Binder | IC50 for the inhibition of CTLs (IFN-gamma ELISPOT, MART-1 specific T cell clone KA/C5 with Mel 624 / Mel 526 target cells) [nM]
1 | B1 | 800
2 | B2 | 16.2
3 | B3 | 0.7
